Experimental data: patent publication US20180044401A1 (KANEKA, published 2018)

Key:
[1] = molecular target: T1, IgG-Fab derived from anti-RSV monoclonal antibody (Palivizumab); assay: SPR Biacore 3000, Fab immobilized on CM5, peptide flown, 25° C., pH 7.4, 1:1 model
T1 construct: Humanized monoclonal IgG fragmented with papain; Immobilized on a CM5 sensor tip; also called Anti-RSV antibody - Fab; Synagis Fab fragment
Procedure: (§1) The affinity of the peptide obtained in the above-described Example 1(2) for the Fc region and Fab region of anti-RSV monoclonal antibody was evaluated using a biosensor Biacore3000 (manufactured by GE Healthcare Bioscience) utilizing surface plasmon resonance. In the present Example, the IgG-Fc or IgG-Fab obtained in the above-described Example 2(1) was immobilized on a sensor tip, and the peptide was flown on the tip to detect the interaction between the two. The IgG-Fab or IgG-Fc was immobilized on a sensor tip CM5 by amine coupling method using N-hydroxysuccinimide (NHS) and N-ethyl-N′-(3-dimethylaminopropyl)carbodiimide hydrochloride (EDC), and ethanolamine was used for blocking. All of the sensor tip and reagents for immobilization was manufactured by GE Healthcare Bioscience. The IgG-Fab solution was diluted to about 10 times using a buffer for immobilization (10 mM AcOH—AcONa, pH 4.5), and the IgG-Fab was immobilized on the sensor tip in accordance with the protocol attached to the Biacore 3000. In addition, a reference cell as negative control was also prepared by activating another flow cell on the tip with EDC/NHS and then immobilizing ethanolamine only. Peptide solutions having concentrations of 16 nM, 64 nM or 256 nM were prepared using a running buffer (20 mM NaH₂PO₄—Na₂HPO₄, 150 mM NaCl, 0.005% P-20, pH 7.4). Each peptide solution was added to the sensor tip in a flow rate of 40 μL/min for 1 minute. Bonding response curves at the time of addition (association phase, 1 minute) and after the addition (dissociation phase, 1 minute) were sequentially obtained at a measurement temperature of 25° C. After each measurement, about 20 mM NaOH was added for wash.

[2] = molecular target: T2, IgG-Fab prepared from anti-TNFα monoclonal antibody (Remicade); assay: SPR Biacore 3000, Fab immobilized on CM5, peptide at 25, 100, 400 nM, 1:1 model
T2 construct: Chimeric antibody; also called Anti-TNFα antibody - Fab; IgG-Fab of anti-TNFα monoclonal antibody
Procedure: as §1, with “Peptide solutions having concentrations of 16 nM, 64 nM or 256 nM were prepared using a running buffer (20 mM NaH₂PO₄—Na₂HPO₄, 150 mM NaCl, 0.005% P-20, pH 7.4).” left out
(§2) Also, the affinity of the peptide according to the present invention (SEQ ID NO: 2) for IgG-Fab prepared from anti-EGFR monoclonal antibody (“Erbitux” sold by Bristol-Myers Squibb) and anti-TNFα monoclonal antibody (“Remicade” sold by Mitsubishi Tanabe Pharma Corporation) was evaluated.

[3] = molecular target: T3, IgG-Fab prepared from anti-EGFR monoclonal antibody (Erbitux); assay: as above
T3 construct: Chimeric antibody; also called Anti-EGFR antibody - Fab
Procedure: as §1, with “Peptide solutions having concentrations of 16 nM, 64 nM or 256 nM were prepared using a running buffer (20 mM NaH₂PO₄—Na₂HPO₄, 150 mM NaCl, 0.005% P-20, pH 7.4).” left out
as §2

[4] = molecular target: T4, IgG-Fc derived from anti-RSV monoclonal antibody (Palivizumab) (human, UniProt P01857-1 108-330 = IgG part, limits assumed); assay: SPR Biacore 3000, Fc immobilized on CM5, peptide flown, 25° C., pH 7.4, 1:1 model
T4 construct: domain: Fc region; Immobilized on a CM5 sensor tip by amine coupling; also called Anti-RSV antibody - Fc; Synagis Fc fragment
Procedure: as §1

B1: immunoglobulin G-binding peptide having the amino acid sequence of SEQ ID NO: 2 (designed binder)
chain: GPLGSTTYKLILNGKTLTGYTTAIAADAATAEIVLKQFANDNGIDGEWTYDDATKTFTVTE
notes: Expressed as a GST fusion in E. coli; GST was cleaved off with PreScission Protease before the assay; also called SpG mutant
- Ka [1]: 2e+07 M⁻¹
- koff [1]: 0.003 s⁻¹
- kon [1]: 66000 M⁻¹ s⁻¹
- Ka [2]: 4e+07 M⁻¹
- koff [2]: 0.01 s⁻¹
- kon [2]: 413000 M⁻¹ s⁻¹
- Ka [3]: 6.5e+07 M⁻¹
- koff [3]: 0.039 s⁻¹
- kon [3]: 252000 M⁻¹ s⁻¹
- Ka [4]: 3.5e+06 M⁻¹
- koff [4]: 0.028 s⁻¹
- kon [4]: 97000 M⁻¹ s⁻¹
